These are literature values, as cited in article PMC8363833.

Data set [1] has as its target TEM1 beta-lactamase (Escherichia coli) (UniProt P62593).
In data set [2] the target is PC1 beta-lactamase (Staphylococcus aureus) (UniProt P00807).
Sequence of UniProt P00807 (P00807 25-281): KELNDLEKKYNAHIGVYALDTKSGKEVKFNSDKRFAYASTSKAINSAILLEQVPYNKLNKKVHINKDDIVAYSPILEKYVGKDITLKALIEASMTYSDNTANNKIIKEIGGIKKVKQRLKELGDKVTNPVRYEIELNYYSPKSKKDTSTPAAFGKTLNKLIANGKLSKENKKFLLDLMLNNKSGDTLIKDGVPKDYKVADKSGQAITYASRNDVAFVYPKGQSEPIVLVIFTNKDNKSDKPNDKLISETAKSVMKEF

Sequence of UniProt P62593 (P62593 24-286): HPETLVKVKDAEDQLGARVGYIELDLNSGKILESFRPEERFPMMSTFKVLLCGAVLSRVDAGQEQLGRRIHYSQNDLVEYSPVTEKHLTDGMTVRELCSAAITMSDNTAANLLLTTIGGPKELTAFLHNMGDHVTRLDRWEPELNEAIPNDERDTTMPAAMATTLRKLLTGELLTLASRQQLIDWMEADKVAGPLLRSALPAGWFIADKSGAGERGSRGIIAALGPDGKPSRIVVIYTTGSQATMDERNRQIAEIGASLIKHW

As usually defined, the Kd is the free concentration of one partner at which half of the binding sites on the other are occupied at equilibrium, for simple one-to-one binding. BLIP (from UniProt P35804): the Kd in data set [1] was 0.0013 µM; in data set [2] it was 0.38 µM.
